Read-outs that look alike come from different tables or passages of the source. Bridge positions count the residues as written; N and C are the ends. Square brackets hold non-standard residues; d marks the D form. Ends that are not written are not given here. I, II: the chains in the order shown.

Common to all, as to assay: cell-based or functional assay
Test [1] deals with T1, HIV-1 gp41 (HXB2 strain) (HIV-1 HXB2, UniProt P04578 512-856).
Test [2] addresses HIV-1 gp41 (JRFL strain) (HIV-1 JRFL).
Test [3] deals with T1, HIV-1 gp41 (HXB2 strain). This is another data set of the same source.
Test [4] concerns the target T1, HIV-1 gp41 (HXB2 strain). The source holds these as a separate data set.
Test [5] addresses HIV-1 gp41 (JRFL strain) (HIV-1 JRFL). This is another data set of the same source.

B1: C0C(PIE7-GK)3 (peptide)
peptide 1: G[dA][dC][dD][dY][dP][dE][dW][dQ][dW][dL][dC][dA][dA]G[dK]
peptide 2: G[dA][dC][dD][dY][dP][dE][dW][dQ][dW][dL][dC][dA][dA]G[dK][dK]
modifications: disulfide I:3-I:12, II:3-II:12 (inferred); also: trimer: two chain 1 copies joined via C-terminal Lys by zero length spacers to the C-terminal Lys of central chain 2
Regarding B1, in the test with HIV-1 gp41 (HXB2 strain) [1], the “IC50 (HXB2), pseudovirion entry” value amounted to 0.117 nM. The “IC50 (JRFL), pseudovirion entry” value with HIV-1 gp41 (JRFL strain) [2] is 16.1 nM.

B2: PIE7-GK long claw (peptide)
peptide: G[dA][dC][dD][dY][dP][dE][dW][dQ][dW][dL][dC][dA][dA]G[dK]
modifications: disulfide 3-12 (inferred); also: three peptides attached to central scaffold LC-TSAT (six-atom spacer), site not given here
As for B2, the “IC50 (HXB2), pseudovirion entry” value in the test with HIV-1 gp41 (HXB2 strain) [1] is 0.124 nM. Further, the “IC50 (JRFL), pseudovirion entry” value in the test with HIV-1 gp41 (JRFL strain) [2] amounted to 20.6 nM.
In the case of Ac-[dK]G[dA][dC][dD][dY][dP][dE][dW][dR][dW][dL][dC][dA][dA][dA]-NH2 (disulfide 4-13 (inferred)) [PIE2-AAA], the “IC50 (HXB2), single-cycle viral infectivity assay” value in the test with HIV-1 gp41 (HXB2 strain) [3] stood at 1440 nM.
For Ac-[dK]G[dA][dC][dD][dY][dP][dE][dW][dR][dW][dL][dC][dA][dA]-NH2 (disulfide 4-13 (inferred)) [PIE2], in the test with HIV-1 gp41 (HXB2 strain) [3], the “IC50 (HXB2), single-cycle viral infectivity assay” value was found to be 1320 nM.
For [dK]G[dA][dC][dD][dY][dP][dE][dW][dQ][dW][dL][dC][dA][dA] (disulfide 4-13 (inferred); also: trimer, N-termini joined by PEG9 spacers) [N9N(PIE7)3], the “IC50 (HXB2), pseudovirion entry” value with HIV-1 gp41 (HXB2 strain) [1] turned out to be 0.25 nM. Also, the “IC50 (JRFL), pseudovirion entry” value in the test with HIV-1 gp41 (JRFL strain) [2] came out at 220 nM.

B3: PEG-(PIE2-AAA)2 (peptide)
peptide: Ac-[dK]G[dA][dC][dD][dY][dP][dE][dW][dR][dW][dL][dC][dA][dA][dA]-NH2
modifications: disulfide 4-13 (inferred); also: dimer: N-terminal Lys of both peptides joined by bis(NHS-ester)PEG crosslinker
As to B3, in the test with HIV-1 gp41 (HXB2 strain) [4], the “IC50 (HXB2), single-cycle viral infectivity assay” value was determined as 21 nM and the “fold improvement of IC50 over the corresponding monomer” value is approximately 70 fold.

B4: N0C(PIE7)2 (peptide)
peptide: [dK]G[dA][dC][dD][dY][dP][dE][dW][dQ][dW][dL][dC][dA][dA]
modifications: disulfide 4-13 (inferred); also: dimer joined N- to C-terminus by zero length spacer
In the case of B4, the “IC50 (HXB2), pseudovirion entry” value in the test with HIV-1 gp41 (HXB2 strain) [1] was determined as 0.534 nM. In addition, in the test with HIV-1 gp41 (JRFL strain) [2], the “IC50 (JRFL), pseudovirion entry” value stood at 402 nM.

B5: PIE7-GK short claw (peptide)
peptide: G[dA][dC][dD][dY][dP][dE][dW][dQ][dW][dL][dC][dA][dA]G[dK]
modifications: disulfide 3-12 (inferred); also: three peptides attached directly to central scaffold TSAT, site not given here
For the molecule B5, the “IC50 (HXB2), pseudovirion entry” value with HIV-1 gp41 (HXB2 strain) [1] stood at 0.234 nM. In addition, the “IC50 (JRFL), pseudovirion entry” value with HIV-1 gp41 (JRFL strain) [2] turned out to be 86.6 nM.

B6: PEG-(PIE7)2 (peptide)
peptide: Ac-[dK]G[dA][dC][dD][dY][dP][dE][dW][dQ][dW][dL][dC][dA][dA]-NH2
modifications: disulfide 4-13 (inferred); also: dimer: N-terminal Lys of both peptides joined by Bis-dPEG9 NHS ester crosslinker
In the case of B6, the “fold improvement of IC50 over the corresponding monomer” value with HIV-1 gp41 (HXB2 strain) [4] was approximately 325 fold. In addition, in the test with HIV-1 gp41 (HXB2 strain) [3], the “IC50 (HXB2), single-cycle viral infectivity assay” value turned out to be 1.9 nM. In addition, the “IC50 (HXB2), pseudovirion entry” value with HIV-1 gp41 (HXB2 strain) [1] was 1.9 nM. In addition, the “IC50 (JRFL), pseudovirion entry” value in the test with HIV-1 gp41 (JRFL strain) [2] was determined as 2300 nM.

B7: C5C(PIE7-GK)2 (peptide)
peptide: G[dA][dC][dD][dY][dP][dE][dW][dQ][dW][dL][dC][dA][dA]G[dK]
modifications: disulfide 3-12 (inferred); also: dimer joined C- to C-terminus by PEG5 spacer on C-terminal Lys
In the case of B7, in the test with HIV-1 gp41 (HXB2 strain) [1], the “IC50 (HXB2), pseudovirion entry” value came to 0.355 nM. The “IC50 (JRFL), pseudovirion entry” value with HIV-1 gp41 (JRFL strain) [2] came out at 203 nM.

B8: C5C(PIE7-GK)3 (peptide)
peptide 1: G[dA][dC][dD][dY][dP][dE][dW][dQ][dW][dL][dC][dA][dA]G[dK]
peptide 2: G[dA][dC][dD][dY][dP][dE][dW][dQ][dW][dL][dC][dA][dA]G[dK][dK]
modifications: disulfide I:3-I:12, II:3-II:12 (inferred); also: trimer: two chain 1 copies joined via C-terminal Lys by PEG5 spacers to the C-terminal Lys of central chain 2
As to B8, the “fold difference in potency against JRFL between C5C-PIE7-trimer and N9N-PIE7-trimer” value with HIV-1 gp41 (JRFL strain) [5] is approximately 35 fold. The “IC50 (HXB2), pseudovirion entry” value with HIV-1 gp41 (HXB2 strain) [1] is 0.13 nM. In addition, in the test with HIV-1 gp41 (JRFL strain) [2], the “IC50 (JRFL), pseudovirion entry” value came out at 6.73 nM.
Turning to Ac-[dK]G[dA][dC][dD][dY][dK][dE][dW][dQ][dW][dL][dC][dA][dA]-NH2 (disulfide 4-13 (inferred)) [PIE8], the “IC50 (HXB2), single-cycle viral infectivity assay” value in the test with HIV-1 gp41 (HXB2 strain) [3] is 1680 nM.
For [dK]G[dA][dC][dD][dY][dP][dE][dW][dQ][dW][dL][dC][dA][dA] (disulfide 4-13 (inferred); also: dimer joined N- to C-terminus by PEG5 spacer) [N5C(PIE7)2], in the test with HIV-1 gp41 (HXB2 strain) [1], the “IC50 (HXB2), pseudovirion entry” value was found to be 0.575 nM. Also, the “IC50 (JRFL), pseudovirion entry” value with HIV-1 gp41 (JRFL strain) [2] was determined as 300 nM.
Turning to Ac-[dK][dK]G[dA][dC][dE][dL][dL]G[dW][dE][dW][dA][dW][dL][dC][dA][dA]-NH2 (disulfide 5-16 (inferred)) [D10-p5], in the test with HIV-1 gp41 (HXB2 strain) [3], the “IC50 (HXB2), single-cycle viral infectivity assay” value came to 9510 nM.

B9: N0N(PIE7)2 (peptide)
peptide: [dK]G[dA][dC][dD][dY][dP][dE][dW][dQ][dW][dL][dC][dA][dA]
modifications: disulfide 4-13 (inferred); also: dimer joined N- to N-terminus by zero length spacer
As for B9, the “IC50 (HXB2), pseudovirion entry” value in the test with HIV-1 gp41 (HXB2 strain) [1] worked out at 0.801 nM. Also, the “IC50 (JRFL), pseudovirion entry” value in the test with HIV-1 gp41 (JRFL strain) [2] amounted to 1090 nM.
Regarding Ac-[dK][dK]G[dA][dC][dD][dY][dP][dE][dW][dR][dW][dL][dC][dA][dA]-NH2 (disulfide 5-14 (inferred)) [2K-PIE2], in the test with HIV-1 gp41 (HXB2 strain) [4], the “fold decrease in fold potency against PIE2, viral entry (HXB2)” value is approximately 2 fold. The “IC50 (HXB2), single-cycle viral infectivity assay” value in the test with HIV-1 gp41 (HXB2 strain) [3] came to 2570 nM.

B10: C9C(PIE7-GK)2 (peptide)
peptide: G[dA][dC][dD][dY][dP][dE][dW][dQ][dW][dL][dC][dA][dA]G[dK]
modifications: disulfide 3-12 (inferred); also: dimer joined C- to C-terminus by PEG9 spacer on C-terminal Lys
In the case of B10, the “IC50 (HXB2), pseudovirion entry” value with HIV-1 gp41 (HXB2 strain) [1] worked out at 0.354 nM. Also, the “IC50 (JRFL), pseudovirion entry” value with HIV-1 gp41 (JRFL strain) [2] stood at 215 nM.
For the molecule [dK]G[dA][dC][dD][dY][dP][dE][dW][dQ][dW][dL][dC][dA][dA] (disulfide 4-13 (inferred); also: dimer joined N- to N-terminus by PEG5 spacer) [N5N(PIE7)2], in the test with HIV-1 gp41 (HXB2 strain) [1], the “IC50 (HXB2), pseudovirion entry” value was determined as 1.13 nM. For the same molecule, in the test with HIV-1 gp41 (JRFL strain) [2], the “IC50 (JRFL), pseudovirion entry” value worked out at 1410 nM.
In the case of Ac-[dK]G[dA][dC][dD][dY][dP][dE][dW][dQ][dW][dL][dC][dA][dA]-NH2 (disulfide 4-13 (inferred)) [PIE7], the “fold potency against D10-p5, viral entry (HXB2)” value in the test with HIV-1 gp41 (HXB2 strain) [4] is approximately 15 fold. Also, in the test with HIV-1 gp41 (JRFL strain) [5], the “IC50 (JRFL), viral entry” value stood at 24400 nM and the “fold reduction in potency against JRFL compared with HXB2” value is approximately 40 fold. The “IC50 (HXB2), single-cycle viral infectivity assay” value with HIV-1 gp41 (HXB2 strain) [3] amounted to 620 nM. In addition, in the test with HIV-1 gp41 (HXB2 strain) [1], the “IC50 (HXB2), pseudovirion entry” value was 620 nM. In the test with HIV-1 gp41 (JRFL strain) [2], the “IC50 (JRFL), pseudovirion entry” value worked out at 24000 nM.
In the case of Ac-KG[dA][dC][dD][dY][dP][dE][dW][dQ][dW][dL][dC][dA][dA]-NH2 (disulfide 4-13 (inferred); not fully specified (residue 1)) [PEG-PIE7], the “fold reduction in potency against unmodified PIE7, viral entry (HXB2)” value with HIV-1 gp41 (HXB2 strain) [4] is approximately 1.5 fold. The “IC50 (HXB2), single-cycle viral infectivity assay” value in the test with HIV-1 gp41 (HXB2 strain) [3] was 940 nM.

The values above are taken from patent US20100184663A1 (UNIVERSITY OF UTAH RESEARCH FOUNDATION, published 2010).
